Assay results reported in the supplement of paper PMC9233669.
Variants at the floor of the assay were thinned out.

Experiments:
biotinyl-Met-oxazolone = assay: self-aminoacylation, catalytic enhancement (BMO) (fold over background); higher = more active; k-Seq, kA / k0A0; sequences stand for … in GGGAAUGGAUCCACAUCUACGAAUUC…UUCACUGCAGACUUGACGAAGCUG
Method in brief: (§1)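 Catalytic enhancement equals the median kA over the uncatalyzed rate, the latter read from the low-activity peak of a bimodal Gaussian fit. Values of kA came from fitting each sequence's fraction reacted to a pseudo-first-order model, with 1000 bootstraps. Reacted RNA was captured with streptavidin and quantified by triplicate qPCR and Illumina sequencing after 90 minutes at room temperature with 2–1250 μM biotinyl-aminoacyl-oxazolone and 0.43 μM mutagenized RNA pools bearing a 21-nt variable region.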

biotinyl-Val-oxazolone = assay: self-aminoacylation, catalytic enhancement (BVO) (fold over background); higher = more active; k-Seq, kA / k0A0; sequences stand for … in GGGAAUGGAUCCACAUCUACGAAUUC…UUCACUGCAGACUUGACGAAGCUG
Method in brief: as §1

biotinyl-Phe-oxazolone = assay: self-aminoacylation, catalytic enhancement (BFO) (fold over background); higher = more active; k-Seq, kA / k0A0; sequences stand for … in GGGAAUGGAUCCACAUCUACGAAUUC…UUCACUGCAGACUUGACGAAGCUG
Method in brief: as §1

biotinyl-Ile-oxazolone = assay: self-aminoacylation, catalytic enhancement (BIO) (fold over background); higher = more active; k-Seq, kA / k0A0; sequences stand for … in GGGAAUGGAUCCACAUCUACGAAUUC…UUCACUGCAGACUUGACGAAGCUG
Method in brief: as §1

biotinyl-Trp-oxazolone = assay: self-aminoacylation, catalytic enhancement (BWO) (fold over background); higher = more active; k-Seq, kA / k0A0; sequences stand for … in GGGAAUGGAUCCACAUCUACGAAUUC…UUCACUGCAGACUUGACGAAGCUG
Method in brief: as §1

biotinyl-Leu-oxazolone = assay: self-aminoacylation, catalytic enhancement (BLO) (fold over background); higher = more active; k-Seq, kA / k0A0; sequences stand for … in GGGAAUGGAUCCACAUCUACGAAUUC…UUCACUGCAGACUUGACGAAGCUG
Method in brief: as §1

Sequence | self-aminoacylation (biotinyl-Met-oxazolone) | self-aminoacylation (biotinyl-Val-oxazolone) | self-aminoacylation (biotinyl-Phe-oxazolone) | self-aminoacylation (biotinyl-Ile-oxazolone) | self-aminoacylation (biotinyl-Trp-oxazolone) | self-aminoacylation (biotinyl-Leu-oxazolone)
UGACUUCAAACAAUCGGUCUG [Fam1A.1 aminoacylation ribozyme variant] | 2.05 | 1.73 | 96.8 | 1.73 | 39.2 | 2.53
UGGUUUGCUAAUAGUCGCAAG [Fam3.1 aminoacylation ribozyme variant] | 1.88 | 1.51 | 8.93 | 1.81 | 4.47 | 1.58
UGUACCCUGGUCAUCGAGUGA [Fam2.1 aminoacylation ribozyme variant] | 5.72 | 3.66 | 10.3 | 4.06 | 8.02 | 7.2
UUAACCCUGGUCAUCGAGUGA [Fam2.1 aminoacylation ribozyme variant] | 11.7 | 5.9 | 20.2 | 5.63 | 11.5 | 12
UUACACUUCAAGCAAUCGGUC [Fam1B.1 aminoacylation ribozyme variant] | 1.26 | 1.14 | 30.4 | 1.25 | 15.7 | 1.5
UUACUUCAAAAAAUCGGUCUG [Fam1A.1 aminoacylation ribozyme variant] | 1.22 | 0.984 | 7.17 | 1.44 | 5.65 | 1.29
UUACUUCAAACAAUCGGUCUC [Fam1A.1 aminoacylation ribozyme variant] | 1.17 | 1.04 | 31.6 | 1.2 | 17.2 | 1.4
UUACUUCAAACAAUCGGUCUG [Fam1A.1 aminoacylation ribozyme variant] | 1.29 | 1.22 | 37.4 | 1.3 | 20.7 | 1.69
UUACUUCAAACAAUCUGUCUG [Fam1A.1 aminoacylation ribozyme variant] | 1.42 | 1.35 | 3.15 | 1.45 | 2.09 | 1.38
UUACUUCAAACAAUGGGUCUG [Fam1A.1 aminoacylation ribozyme variant] | 1.03 | 1.05 | 0.83 | 1.05 | 1.23 | 1.06
UUACUUCAAACCAUCGGUCUG [Fam1A.1 aminoacylation ribozyme variant] | 1.06 | 1.03 | 1.23 | 1.09 | 1.02 | 0.847
UUACUUCAAGCAAUCGGUCUG [Fam1A.1 aminoacylation ribozyme variant] | 1.12 | 0.95 | 5.97 | 0.993 | 3.89 | 1.26
UUACUUCACACAAUCGGUCUG [Fam1A.1 aminoacylation ribozyme variant] | 1.06 | 1.28 | 1.66 | 1.27 | 1.03 | 1.17
UUACUUCAGACAAUCGGUCUG [Fam1A.1 aminoacylation ribozyme variant] | 1.11 | 1.12 | 1.73 | 1.14 | 1.12 | 1.3
UUACUUUAAACAAUCGGUCUG [Fam1A.1 aminoacylation ribozyme variant] | 1.38 | 1.11 | 1.4 | 1.11 | 1.25 | 0.878
UUGCUUCAAACAAUCGGUCUG [Fam1A.1 aminoacylation ribozyme variant] | 2.25 | 1.91 | 147 | 2.12 | 53.4 | 3.55
UUUACCCUGGUCAACGAGUGA [Fam2.1 aminoacylation ribozyme variant] | 5.61 | 3.5 | 26.1 | 3 | 8.31 | 5.66
UUUACCCUGGUCACCGAGUGA [Fam2.1 aminoacylation ribozyme variant] | 7.62 | 4.12 | 44.3 | 3.3 | 8 | 7.47
UUUACCCUGGUCAUCCAGUGA [Fam2.1 aminoacylation ribozyme variant] | 4.91 | 2.98 | 15.7 | 3.12 | 6.23 | 4.72
UUUACCCUGGUCAUCGAGAGA [Fam2.1 aminoacylation ribozyme variant] | 1.61 | 1.3 | 2.19 | 1.28 | 1.86 | 1.32
UUUACCCUGGUCAUCGAGCGA [Fam2.1 aminoacylation ribozyme variant] | 3.05 | 2.43 | 2.17 | 2.16 | 3.52 | 3.21

Sequence | self-aminoacylation (biotinyl-Met-oxazolone) | self-aminoacylation (biotinyl-Val-oxazolone) | self-aminoacylation (biotinyl-Phe-oxazolone) | self-aminoacylation (biotinyl-Ile-oxazolone) | self-aminoacylation (biotinyl-Trp-oxazolone) | self-aminoacylation (biotinyl-Leu-oxazolone)
UUUACCCUGGUCAUCGAGUGU [Fam2.1 aminoacylation ribozyme variant] | 82.3 | 26.3 | 542 | 22.7 | 75.4 | 71.5
UUUACCCUGGUCAUCGCGUGA [Fam2.1 aminoacylation ribozyme variant] | 18.9 | 9.57 | 128 | 7.82 | 19 | 16.9
UUUACCCUGGUCAUCGUGUGA [Fam2.1 aminoacylation ribozyme variant] | 2.98 | 2.06 | 15.3 | 1.66 | 3.71 | 3.11
UUUACCCUGGUCUUCGAGUGA [Fam2.1 aminoacylation ribozyme variant] | 3.61 | 2.79 | 13.9 | 2.46 | 5.27 | 3.58
UUUACGCUGGUCAUCGAGUGA [Fam2.1 aminoacylation ribozyme variant] | 4.46 | 4.07 | 10.2 | 3.56 | 6.37 | 4.78
UUUACUCUGGUCAUCGAGUGA [Fam2.1 aminoacylation ribozyme variant] | 5.53 | 3.58 | 7.42 | 3.99 | 6.74 | 5.43
UUUCACCUAGGCCAUCGGGUG [Fam2.2 aminoacylation ribozyme variant] | 3.71 | 4 | 20.8 | 3.27 | 4.57 | 4.34
UUUCACCUAGGGCAUCGGGUG [Fam2.2 aminoacylation ribozyme variant] | 3.15 | 3.9 | 26 | 3.17 | 3.56 | 3.49
UUUCACCUAGGUCAUCGAGUG [Fam2.2 aminoacylation ribozyme variant] | 7.16 | 4.45 | 16.4 | 5.72 | 4.82 | 9.37
UUUCACCUAGGUCAUCGGGAG [Fam2.2 aminoacylation ribozyme variant] | 1.73 | 1.35 | 1.4 | 1.68 | 2.02 | 1.82
UUUCACCUAGGUCAUCGGGCG [Fam2.2 aminoacylation ribozyme variant] | 4.77 | 3.19 | 4.77 | 3.06 | 4.57 | 5.21
UUUCACCUAGGUCAUCGGGUA [Fam2.2 aminoacylation ribozyme variant] | 27.4 | 13.9 | 184 | 14.7 | 21.2 | 36.1
UUUCACCUAGGUCAUCUGGUG [Fam2.2 aminoacylation ribozyme variant] | 1.88 | 1.86 | 9.3 | 1.76 | 2.5 | 2.22
UUUCACCUAGGUCCUCGGGUG [Fam2.2 aminoacylation ribozyme variant] | 4.17 | 4.22 | 35.6 | 3.82 | 5.68 | 4.92
UUUCACCUAGGUCUUCGGGUG [Fam2.2 aminoacylation ribozyme variant] | 4.63 | 4.51 | 29 | 4.04 | 5.4 | 5.06
UUUCACCUAGGUGAUCGGGUG [Fam2.2 aminoacylation ribozyme variant] | 3.5 | 3.67 | 24.3 | 3.55 | 5.69 | 4.15
UUUCACCUAGGUUAUCGGGUG [Fam2.2 aminoacylation ribozyme variant] | 3.71 | 2.93 | 19.6 | 2.92 | 4.62 | 3.72
UUUCACGUAGGUCAUCGGGUG [Fam2.2 aminoacylation ribozyme variant] | 4.24 | 4.25 | 32.2 | 2.89 | 4.06 | 3.88
UUUCACUUAGGUCAUCGGGUG [Fam2.2 aminoacylation ribozyme variant] | 6.17 | 4.19 | 46.7 | 4.22 | 6.64 | 6.73
UUUGCCCUGGUCAUCGAGUGA [Fam2.1 aminoacylation ribozyme variant] | 45.5 | 18.1 | 294 | 16.5 | 46.1 | 41
